Reference: patent US20190000964A1

Experiments:
[1] = biological target: human CCR5 receptor (hCCR5) (human) (UniProt P51681); test: 0.5 nM non-labeled gp120 Bal against 0.5 nM FITC-gp120Bal on Cf2Th/synCCR5 cells with sCD4
[2] = biological target: human CCR5 receptor (hCCR5) (human) (UniProt P51681)
[3] = biological target: human CCR5 receptor (hCCR5) (human) (UniProt P51681); test: inhibition of gp120/sCD4 complex binding to CCR5-expressing Cf2Th cells by competing peptide

human CCR5 receptor (hCCR5) (human), sequence (P51681 whole entry): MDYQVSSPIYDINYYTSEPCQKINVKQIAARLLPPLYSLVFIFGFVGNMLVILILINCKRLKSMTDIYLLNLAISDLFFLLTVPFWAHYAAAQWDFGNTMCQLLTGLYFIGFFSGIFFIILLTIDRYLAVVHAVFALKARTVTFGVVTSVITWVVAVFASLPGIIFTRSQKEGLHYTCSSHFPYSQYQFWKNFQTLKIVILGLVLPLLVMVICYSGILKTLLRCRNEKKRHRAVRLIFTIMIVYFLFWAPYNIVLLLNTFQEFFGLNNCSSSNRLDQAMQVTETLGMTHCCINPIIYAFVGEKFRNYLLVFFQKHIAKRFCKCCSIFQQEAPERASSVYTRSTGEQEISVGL

Substance	percent inhibition of FITC-gp120Bal binding [1] [%]	Kd [2] [nM]	EC50 [3] [nM]
gp120 Bal-sCD4 complex (from UniProt P01730 26-396)	> 80	0.46	
All D, ttnyt (peptide)			2
gp120 CM235-sCD4 complex (from UniProt P01730 26-396)		0.77	
